# From US8022188B2, “Immunosuppressant binding antibodies and methods of obtaining and using same” (Abbott Laboratories, priority 2006, dated 2011)
# Where two headings read alike, the source gives them in different places.
# Experiments:
# [1] = cited from earlier work
# [2] = Kinetic Exclusion Assay (KinExA) affinity determination of IgG; type: binding; conditions: for Fold Improvement: KD, relative to 1-60-46 WT IgG
# Procedure: The equilibrium dissociation constants for both the 1-60-46 AM2 IgG and the 1-60-46 WT mAb IgG produced from the murine hybridoma cell line 1-60-46 were determined using Kinetic Exclusion Assay (KinExA®), available from Sapidyne Instruments (Boise, Id.) (See, Darling and Brault, ASSAY and Drug Development Technologies, 2(6):647-657 (2004)). A constant amount of IgG antibody (AM2 or WT) was incubated with various concentrations (10^−8 M to 10^−13 M) of tacrolimus drug (commercially available from Astellas Pharma, Inc., Tokyo, Japan) and allowed to come to equilibrium (2 hours to 14 hours) before sampling. The amount of free binding sites was determined by injecting the antibody:tacrolimus reaction mixture over bt-tacro immobilized to a solid-phase. Tacrolimus IgG antibody bound to the bt-tacro immobilized to the solid-phase was subsequently detected by injecting goat anti-mouse polyclonal antibody conjugates (GAM) to Cy5 (GAM-Cy5) fluorescent dye. The degree of GAM-Cy5 bound was proportional to the amount of tacrolimus IgG bound to the immobilized bt-tacro and was detected after excitation with the appropriate wavelength. The KD was determined by analyzing the amount of free binding sites versus the amount of antigen present in the reaction sample using software provided by the manufacturer (Sapidyne Instruments; Boise, Id.).
improvement in KD relative to the 1-60-46 WT IgG ([2]; physiological diluent) [fold],"Kd ([2]; physiological diluent (PBS pH 7.4, 1% BSA), read-out: KD (no MeOH)) [pM]",improvement in KD relative to the 1-60-46 WT IgG ([2]; selection diluent) [fold],"Kd ([2]; selection diluent (PBS, 1% BSA, 10% methanol), read-out: Kd (10% MeOH)) [pM]",Molecule,in vivo potency greater than cyclosporine CsA [1],Fold Improvement ([2]; 10% MeOH) [x],Fold Improvement ([2]; no MeOH) [x]
,,,,C=CC[C@@H]1/C=C(\C)C[C@H](C)C[C@H](OC)[C@H]2O[C@@](O)(C(=O)C(=O)N3CCCC[C@H]3C(=O)O[C@H](/C(C)=C/[C@@H]3CC[C@@H](O)[C@H](OC)C3)[C@H](C)[C@@H](O)CC1=O)[C@H](C)C[C@@H]2OC [Tacrolimus],50-100 times,,
16,1.2,12,13,"1-60-46 AM2 IgG: murine IgG2a/κ containing the H2-1A, L1-1B and L3-A mutations; SEQ ID NO:40 and 42 (antibody, Mouse) heavy: EVELVESGGDLVKPGGSLKLSCAASGFTFSSYGMSWVRQTPDKRLEWVATISSGGAWTFYPDSVKGRFTISRDNAKNTLSLQMSSLKSADTAMYYCSRQTDGYSWFPYWGQGTLVTVSASAKTTAPSVYPLAPVCGDTTGSSVTLGCLVKGYFPEPVTLTWNSGSLSSGVHTFPAVLQSDLYTLSSSVTVTSSTWPSQSITCNVAHPASSTKVDKKIEPRGPTIKPCPPCKCPAPNLLGGPSVFIFPPKIKDVLMISLSPIVTCVVVDVSEDDPDVQISWFVNNVEVHTAQTQTHREDYNSTLRVVSALPIQHQDWMSGKEFKCKVNNKDLPAPIERTISKPKGSVRAPQVYVLPPPEEEMTKKQVTLTCMVTDFMPEDIYVEWTNNGKTELNYKNTEPVLDSDGSYFMYSKLRVEKKNWVERNSYSCSVVHEGLHNHHTTKSFSRTPGK light: DVLMTQTPLSLPVSLGDQASISCKSSQGLVHSTGNTFLEWFLQKPGQSPKLLIYKISNRFSGVPDRFSGSGSGTDFTLKISRVESEDLGVYYCFQGSHAPLTFGAGTKLELKRASADAAPTVSIFPPSSEQLTSGGASVVCFLNNFYPKDINVKWKIDGSERQNGVLNSWTDQDSKDSTYSMSSTLTLTKDEYERHNSYTCEATHKTSTSPIVKSFNRNEC",,12,16
